Legend:
Experiment in all cases: co-IP
[1] = biological target: T1, GFP-tagged Prohibitin (PHB) (UniProt P35232 1-272)
T1 sequence: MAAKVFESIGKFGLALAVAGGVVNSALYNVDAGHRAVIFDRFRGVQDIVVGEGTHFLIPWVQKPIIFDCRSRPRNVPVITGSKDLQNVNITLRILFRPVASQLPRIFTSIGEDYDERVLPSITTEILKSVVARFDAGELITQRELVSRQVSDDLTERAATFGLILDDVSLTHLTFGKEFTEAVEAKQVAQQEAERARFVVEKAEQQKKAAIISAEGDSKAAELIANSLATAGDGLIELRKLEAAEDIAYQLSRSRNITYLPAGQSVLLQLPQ

GFP-tagged TOMM20 = biological target: T2, GFP-tagged TOMM20 (UniProt Q15388 1-145)
T2 sequence: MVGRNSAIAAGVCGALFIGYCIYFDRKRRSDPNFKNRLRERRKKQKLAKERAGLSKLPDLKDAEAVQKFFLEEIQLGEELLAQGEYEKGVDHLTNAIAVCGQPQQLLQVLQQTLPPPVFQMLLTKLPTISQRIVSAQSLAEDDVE

GFP-tagged TOMM70 = biological target: T3, GFP-tagged TOMM70 (UniProt O94826 1-608)
T3 sequence: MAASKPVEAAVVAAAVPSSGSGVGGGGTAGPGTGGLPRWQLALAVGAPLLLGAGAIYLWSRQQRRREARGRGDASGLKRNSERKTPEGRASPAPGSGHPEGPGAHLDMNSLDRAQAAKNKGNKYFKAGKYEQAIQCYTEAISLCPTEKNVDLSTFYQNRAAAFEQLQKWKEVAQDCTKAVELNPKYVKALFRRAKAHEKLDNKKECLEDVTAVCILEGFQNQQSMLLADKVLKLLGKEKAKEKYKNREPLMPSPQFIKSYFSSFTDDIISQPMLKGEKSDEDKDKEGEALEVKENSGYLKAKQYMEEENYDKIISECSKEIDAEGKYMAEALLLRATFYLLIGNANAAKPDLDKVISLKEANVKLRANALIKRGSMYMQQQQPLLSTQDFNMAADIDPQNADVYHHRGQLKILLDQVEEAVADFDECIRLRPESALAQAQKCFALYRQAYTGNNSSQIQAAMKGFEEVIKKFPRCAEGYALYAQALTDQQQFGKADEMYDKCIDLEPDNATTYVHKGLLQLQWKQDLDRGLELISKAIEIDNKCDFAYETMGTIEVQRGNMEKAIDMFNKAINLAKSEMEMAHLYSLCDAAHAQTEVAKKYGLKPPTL

fold less AURKA in the pulldown than in pulldowns of TPX2 [1]: ≥ 10 fold
fold less AURKA in the pulldown than in pulldowns of TPX2 (GFP-tagged TOMM20): ≥ 10 fold
fold less AURKA in the pulldown than in pulldowns of TPX2 (GFP-tagged TOMM70): ≥ 10 fold
B1: endogenous AURKA (Aurora A kinase) (enzyme)
chain: MDRSKENCISGPVKATAPVGGPKRVLVTQQFPCQNPLPVNSGQAQRVLCPSNSSQRIPLQAQKLVSSHKPVQNQKQKQLQATSVPHPVSRPLNNTQKSKQPLPSAPENNPEEELASKQKNEESKKRQWALEDFEIGRPLGKGKFGNVYLAREKQSKFILALKVLFKAQLEKAGVEHQLRREVEIQSHLRHPNILRLYGYFHDATRVYLILEYAPLGTVYRELQKLSKFDEQRTATYITELANALSYCHSKRVIHRDIKPENLLLGSAGELKIADFGWSVHAPSSRRTTLCGTLDYLPPEMIEGRMHDEKVDLWSLGVLCYEFLVGKPPFEANTYQETYKRISRVEFTFPDFVTEGARDLISRLLKHNPSQRPMLREVLEHPWITANSSKPSNCQNKESASKQS

From paper doi:10.1101/236612 (bioRxiv, 2017)
